We go through 2 molecules from patent US20040152179A1 (US Dept. of Health and Human Services, published 2004).

Assay [1] addresses diphtheria toxin receptor on human cell lines (U251, HeLa, Jurkat) (human) (UniProt Q99075). As to the kind of experiment: cell-based or functional assay.
In assay [2] the target is diphtheria toxin receptor on Cos-7 cells (monkey kidney) (monkey) (UniProt Q09118). As to the kind of experiment: cold competitor against I^125-labelled DT on Cos-7 cells; reference native DT.
Assay [3] concerns the target T1, DTR (diphtheria toxin receptor binding domain, codons 384-535 of DT), control protein (UniProt P00588 416-567).
T1 construct: range 384-535
Put plainly: competition with I^125-labelled DT on Cos-7 cells.

In turn, Bcl-xL-DTR yielded an Apoptosis Prevention (%), HeLa cells, 0.2 uM STS, 2.17 uM Bcl-xL-DTR, 10 hrs in assay [1] of 32.4%. Besides, the fold lower affinity than native DT in assay [2] stood at 3 fold.

B1: diphtheria toxin receptor on Cos-7 cells (monkey kidney) (receptor)
chain: DLQEADLDLLRVTLSSKPQALATPSKEEHGKRKKKGKGLGKKRDPCLRKYKDFCIHGECKYVKELRAPSCICHPGYHGERCHGLSL
notes: whole, on cells; also called DT receptor
Regarding B1, the binding result in assay [3] is “no binding”.
